The subject of this data set is T1, PhosFluor (the fluorescent protein having the amino acid sequence set forth in SEQ ID NO: 10).
T1 sequence: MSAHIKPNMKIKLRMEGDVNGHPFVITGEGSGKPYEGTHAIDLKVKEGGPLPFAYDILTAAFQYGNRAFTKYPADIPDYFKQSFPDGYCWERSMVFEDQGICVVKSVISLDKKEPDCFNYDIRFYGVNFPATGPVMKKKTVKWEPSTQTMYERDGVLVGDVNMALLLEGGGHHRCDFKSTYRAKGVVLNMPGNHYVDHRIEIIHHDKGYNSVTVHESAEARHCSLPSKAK

The record followed here is US20120252698.

Chain of Akt1 (P31749 whole entry): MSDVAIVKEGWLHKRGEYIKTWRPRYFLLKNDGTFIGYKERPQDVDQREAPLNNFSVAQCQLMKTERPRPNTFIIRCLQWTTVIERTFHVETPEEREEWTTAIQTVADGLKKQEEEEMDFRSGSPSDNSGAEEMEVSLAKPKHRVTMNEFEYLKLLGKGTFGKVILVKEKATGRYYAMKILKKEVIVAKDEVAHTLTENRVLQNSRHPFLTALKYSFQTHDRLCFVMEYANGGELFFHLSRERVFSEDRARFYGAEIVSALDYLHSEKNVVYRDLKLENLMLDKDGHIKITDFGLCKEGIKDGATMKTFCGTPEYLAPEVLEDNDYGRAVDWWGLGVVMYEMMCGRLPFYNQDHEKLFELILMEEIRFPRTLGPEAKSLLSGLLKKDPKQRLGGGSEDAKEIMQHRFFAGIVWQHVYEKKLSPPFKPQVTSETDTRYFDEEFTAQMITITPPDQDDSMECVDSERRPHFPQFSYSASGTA

Take Akt1: the “Western blot analyses of phosphorylation” value is “serine and threonine sites on PhosFluor are phosphorylated by PKA, PKC, mitogen-activated protein kinase (MAPK), cell division control protein 2 (cdc2), and Akt1”; the “emission spectrum of PhosFluor” value is on record as “A marked shift in the emission spectrum of PhosFluor was observed when this molecule was incubated with PKA, PKC or Akt1”; the “excitation spectrum of PhosFluor” value is listed as “the excitation spectrum of PhosFluor was dramatically altered upon phosphorylation by different protein kinases, including Akt1”.
Consider PKA, for which the “Western blot analyses of phosphorylation” value is “serine and threonine sites on PhosFluor are phosphorylated by PKA, PKC, mitogen-activated protein kinase (MAPK), cell division control protein 2 (cdc2), and Akt1”; the “emission spectrum of PhosFluor” value is on record as “A marked shift in the emission spectrum of PhosFluor was observed when this molecule was incubated with PKA, PKC or Akt1”; the “upward shift of apparent molecular weight on SDS-PAGE” value is listed as “To a lesser extent, higher molecular weight species were also observed upon phosphorylation by PKA”.
In the case of Src, the “SDS-PAGE and immunoblot of PhosFluor incubated with kinase (total protein, phospho-tyrosine, mobility shift)” value is “PhosFluor is an avid substrate for PKC and Src”.
Turning to alkaline phosphatase, the “fluorescence intensity of PhosFluor over time” value is “This treatment virtually abolished the increase in fluorescence intensity of PhosFluor over time”.
Consider cell division control protein 2 (cdc2), for which the “Western blot analyses of phosphorylation” value was “serine and threonine sites on PhosFluor are phosphorylated by PKA, PKC, mitogen-activated protein kinase (MAPK), cell division control protein 2 (cdc2), and Akt1”; the “fluorescence intensity of PhosFluor incubated with kinase” value is “The fluorescence intensity of PhosFluor also increased above background levels when the protein was incubated with cdc2 and MAPK (data not shown)”.
For the substance mitogen-activated protein kinase (MAPK), the “Western blot analyses of phosphorylation” value was “serine and threonine sites on PhosFluor are phosphorylated by PKA, PKC, mitogen-activated protein kinase (MAPK), cell division control protein 2 (cdc2), and Akt1”; the “fluorescence intensity of PhosFluor incubated with kinase” value was “The fluorescence intensity of PhosFluor also increased above background levels when the protein was incubated with cdc2 and MAPK (data not shown)”.
For protein kinase C (PKC), the “SDS-PAGE and immunoblot of PhosFluor incubated with kinase (total protein, phospho-tyrosine, mobility shift)” value is “PhosFluor is an avid substrate for PKC and Src”; the “Western blot analyses of phosphorylation” value was “serine and threonine sites on PhosFluor are phosphorylated by PKA, PKC, mitogen-activated protein kinase (MAPK), cell division control protein 2 (cdc2), and Akt1”; the “emission spectrum of PhosFluor” value was “A marked shift in the emission spectrum of PhosFluor was observed when this molecule was incubated with PKA, PKC or Akt1”; the “upward shift of apparent molecular weight on SDS-PAGE” value is “when phosphorylated by PKC, multiple higher molecular weight species of PhosFluor were resolved by SDS-PAGE”.
